This is an account of results in article PMC11035769.

This experiment has as its target CD16a-His (human) (UniProt P08637). Kind of experiment: BLI; CD16a-His (250 ng/mL) immobilised on HIS1K biosensors; analytes at 3200 - 50 nM or 400 - 6.25 nM; 1X kinetics buffer (PBS pH 7.4, 0.02% Tween-20, 0.1% bovine serum albumin); 300 s association, 600 s dissociation; 1:1 fitting model; geometric means.
Sequence of UniProt P08637 (P08637 17-208): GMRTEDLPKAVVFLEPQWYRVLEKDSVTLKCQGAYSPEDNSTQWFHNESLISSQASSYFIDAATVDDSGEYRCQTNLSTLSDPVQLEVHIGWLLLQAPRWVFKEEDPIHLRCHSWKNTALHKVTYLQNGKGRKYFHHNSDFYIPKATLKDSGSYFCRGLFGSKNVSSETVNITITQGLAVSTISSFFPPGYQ

Usually Kd stands for the free concentration of one partner at which half of the binding sites on the other are occupied at equilibrium, for simple one-to-one binding. What is called koff is the rate constant with which the complex falls apart. A high value points to fast dissociation. One may read the kon as the second-order rate constant of association. Regarding “Immune Globulin Intravenous (Human) (antibody)”, the Kd turned out to be 244 nM, the off-rate constant (koff) came to 0.0402 s⁻¹ and the association rate constant (kon) came out at 165000 M⁻¹ s⁻¹.
